This data set addresses Tenascin-C (TN-C) (Homo sapiens) (UniProt P24821). Kind of data set: FP. Conditions: 5'-C6 amine conjugated to MAG2-DO3A chelator; (CH2CH2O)6 spacer between GGGAGGACG and CGUCGC; 3'-3'-T cap; nitrocellulose filter binding, TN-C titrated 1.25e-7 to 6.35e-12 M.

Chain of Tenascin-C (TN-C) (Homo sapiens) (P24821 23-2201): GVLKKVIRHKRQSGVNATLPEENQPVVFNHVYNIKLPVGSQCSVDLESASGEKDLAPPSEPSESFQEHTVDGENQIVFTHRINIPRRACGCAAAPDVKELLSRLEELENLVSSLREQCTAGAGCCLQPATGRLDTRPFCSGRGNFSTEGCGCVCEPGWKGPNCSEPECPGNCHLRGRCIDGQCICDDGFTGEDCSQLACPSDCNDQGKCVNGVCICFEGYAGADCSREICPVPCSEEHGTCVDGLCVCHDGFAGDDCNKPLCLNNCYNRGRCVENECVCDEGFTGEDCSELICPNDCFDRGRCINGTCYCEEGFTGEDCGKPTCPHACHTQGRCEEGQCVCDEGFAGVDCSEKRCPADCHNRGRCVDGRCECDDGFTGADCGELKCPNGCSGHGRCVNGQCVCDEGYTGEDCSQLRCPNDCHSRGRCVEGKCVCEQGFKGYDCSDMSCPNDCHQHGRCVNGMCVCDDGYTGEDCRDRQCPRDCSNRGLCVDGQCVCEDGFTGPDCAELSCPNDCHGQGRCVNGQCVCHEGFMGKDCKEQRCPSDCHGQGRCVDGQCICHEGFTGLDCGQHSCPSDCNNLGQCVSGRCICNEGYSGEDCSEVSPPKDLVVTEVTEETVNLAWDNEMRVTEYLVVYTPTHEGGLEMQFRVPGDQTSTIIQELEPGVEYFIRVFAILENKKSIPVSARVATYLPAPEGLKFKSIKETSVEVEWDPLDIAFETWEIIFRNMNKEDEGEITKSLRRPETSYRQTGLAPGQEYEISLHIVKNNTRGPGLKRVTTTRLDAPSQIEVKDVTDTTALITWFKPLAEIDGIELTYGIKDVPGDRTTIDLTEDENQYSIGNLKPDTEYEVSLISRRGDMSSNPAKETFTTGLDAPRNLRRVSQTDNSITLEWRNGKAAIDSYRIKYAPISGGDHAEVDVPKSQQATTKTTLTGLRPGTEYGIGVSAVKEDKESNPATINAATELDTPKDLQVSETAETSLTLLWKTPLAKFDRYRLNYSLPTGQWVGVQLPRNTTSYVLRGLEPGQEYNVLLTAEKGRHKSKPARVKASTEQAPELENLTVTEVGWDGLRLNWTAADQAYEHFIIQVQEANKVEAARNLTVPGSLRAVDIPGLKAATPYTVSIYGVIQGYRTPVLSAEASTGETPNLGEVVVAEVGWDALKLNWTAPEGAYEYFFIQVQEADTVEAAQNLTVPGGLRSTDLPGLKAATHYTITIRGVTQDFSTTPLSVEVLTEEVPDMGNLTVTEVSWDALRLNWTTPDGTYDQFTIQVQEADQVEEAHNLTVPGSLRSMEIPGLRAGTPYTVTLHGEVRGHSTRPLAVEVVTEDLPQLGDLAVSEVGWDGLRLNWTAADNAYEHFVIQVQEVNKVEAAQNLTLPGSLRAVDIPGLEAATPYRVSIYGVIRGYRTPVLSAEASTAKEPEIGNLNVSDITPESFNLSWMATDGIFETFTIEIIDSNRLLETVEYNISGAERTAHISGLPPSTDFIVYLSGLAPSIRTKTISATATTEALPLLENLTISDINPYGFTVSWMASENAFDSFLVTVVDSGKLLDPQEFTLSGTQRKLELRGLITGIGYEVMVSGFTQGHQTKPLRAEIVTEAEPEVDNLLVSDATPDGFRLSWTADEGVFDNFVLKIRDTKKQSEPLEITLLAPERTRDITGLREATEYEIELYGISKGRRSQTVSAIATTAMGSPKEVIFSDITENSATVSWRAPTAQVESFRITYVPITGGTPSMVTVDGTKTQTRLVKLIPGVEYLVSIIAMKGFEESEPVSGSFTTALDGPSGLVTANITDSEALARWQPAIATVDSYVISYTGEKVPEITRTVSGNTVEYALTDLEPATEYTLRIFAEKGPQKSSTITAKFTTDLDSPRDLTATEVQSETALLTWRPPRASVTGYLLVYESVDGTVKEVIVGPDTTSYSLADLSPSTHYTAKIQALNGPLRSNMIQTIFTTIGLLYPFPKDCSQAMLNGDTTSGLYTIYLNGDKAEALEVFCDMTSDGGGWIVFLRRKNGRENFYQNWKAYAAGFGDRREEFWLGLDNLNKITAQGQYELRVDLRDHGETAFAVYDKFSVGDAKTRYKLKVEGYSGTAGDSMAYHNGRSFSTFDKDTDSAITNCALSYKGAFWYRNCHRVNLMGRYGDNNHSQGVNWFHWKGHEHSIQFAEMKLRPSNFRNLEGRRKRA

By Kd is commonly meant the free concentration of one partner at which half of the binding sites on the other are occupied at equilibrium, for simple one-to-one binding. Low readings indicate a tighter complex, high ones a looser complex. In turn, “GGGAGGACGCGUCGCCGUAAUGGAUGUUUUGCUCCCUG [111In-TTA1-MAG2-DO3A]” showed a dissociation constant (Kd) of 1 nM.

(Values after patent US20090068103.)
